{
  "source": "patent US12723075B2",
  "about": "“Humanized antibodies directed against KCNK9” (The Johns Hopkins University, priority 2020, dated 2026)",
  "key": {"[1]": {"molecular_target": "T1, human KCNK9 (Homo sapiens, UniProt Q9NPC2)", "T1 construct": "expressed in transfected cells; host or cells: HEK293 cells, stably transfected, tetracycline-inducible promoter", "T1 sequence (Q9NPC2 whole entry)": "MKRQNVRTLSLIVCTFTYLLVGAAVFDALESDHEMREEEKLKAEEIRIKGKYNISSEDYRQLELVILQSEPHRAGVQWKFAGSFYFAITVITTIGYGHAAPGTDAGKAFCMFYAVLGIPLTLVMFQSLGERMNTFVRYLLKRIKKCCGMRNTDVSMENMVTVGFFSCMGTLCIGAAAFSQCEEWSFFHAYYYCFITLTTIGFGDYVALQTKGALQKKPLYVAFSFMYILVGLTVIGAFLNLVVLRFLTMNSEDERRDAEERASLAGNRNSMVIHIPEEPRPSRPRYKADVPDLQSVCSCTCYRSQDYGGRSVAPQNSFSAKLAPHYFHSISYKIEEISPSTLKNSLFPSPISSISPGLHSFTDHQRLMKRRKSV", "experiment": "Flow cytometry binding to KCNK9-expressing HEK293 cells", "settings": "for Binding affinity to human KCNK9 relative to parental murine monoclonal antibody: PE conjugate secondary antibody (FIG. 1B)", "source_text": "An anti-KCNK9 mouse monoclonal antibody having a VH amino acid sequence of SEQ ID NO: 1 and a VL amino acid sequence of SEQ ID NO: 2 (mu-mAb) was humanized using a method based on Queen et al., Proc. Natl. Acad. Sci. USA, 86: 10029-10033 (1989). The hybridoma antibody was sequenced after amplifying the antibody variable regions by RT-PCR with degenerate primers. The variable regions were fused with the human antibody IgG1 constant regions to produce a chimeric antibody. Antigen binding of the chimeric antibody was confirmed by staining of the KCNK9-expressing cells. HEK293 cells were stably transfected with KCNK9 expression vector under the tetracycline inducible promoter. After induction, the cells were incubated with various concentrations of chimeric KCNK9 antibody for 30 minutes, followed by secondary anti-human Fc FITC conjugate. Chimeric antibody binding was analyzed by flow cytometry. High affinity binding was confirmed with an EC50 of about 0.3 μg/mL (FIG. 1A).\nAfter antibody sequence analysis and structure modeling, the murine antibody CDRs (SEQ ID NOs: 3-8) were grafted into human antibody VK3-11 and VH1-3 frameworks. Critical murine antibody framework residues that support CDR conformation were identified and introduced into the human frameworks. Five variants of the humanized VH sequences (VH1-5; SEQ ID NOs: 9-13) and three variants of the humanized VL variants (VL1-3; SEQ ID NOs: 14-16) were designed and synthesized. All of the variable regions were cloned into a human IgG1 expression vector. The VHs and VLs were cross-matched to generate 15 humanized KCNK9 antibody clones. All humanized antibodies were produced by transient transfection in 293 cells and purified by Protein A chromatography. Antigen binding of the humanized KCNK9 antibodies was characterized by immunofluorescence staining of KCNK9-expressing cells."}, "[2]": {"tested_on": "Human LX22 PDX-derived lung carcinoma cells", "experiment": "MTT cell viability in combination with PARP or CDK4/6 inhibitor", "assay_type": "cell-based", "settings": "72 hours", "method": "Inhibitors of poly-ADP ribose polymerase (PARP) and cyclin dependent kinases (CDK4/6) are FDA-approved and undergoing clinical testing for multiple solid tumors. It was investigated whether inhibiting the KCNK9 K^+ channel with huKCNK9 mAb sensitized cancer cells to these therapeutics. Human LX22 PDX-derived lung carcinoma cells were treated with the PARP inhibitor AZD2461 (100 μM)+/−huKCNK9 mAb (400 μg/ml) or with the CDK4/6 inhibitor palbociclib (0.5 μM)+/−huKCNK9 mAb (400 μg/ml) for 72 hours. Cell viability was then quantified by MTT assay. Statistical comparisons were performed by ANOVA and post-hoc Tukey test."}, "[3]": {"tested_on": "KCNK9-positive BT549 carcinoma cells", "experiment": "Cell viability, KCNK9-positive breast cancer cells", "assay_type": "cell-based, human", "settings": "BT549, KCNK9-positive (FIG. 5)"}, "[4]": {"tested_on": "BEN lung carcinoma xenografts", "experiment": "Pre-established BEN lung carcinoma xenografts in nude mice", "assay_type": "in vivo", "settings": "4 mg/kg b.w. twice per week, established tumors, p<0.01 (FIGS. 6A-6D)", "method": "Equal numbers of viable BEN cells (4×10^6 cells) were implanted into the flanks of nude mice. Humanized anti-KCNK9 monoclonal antibodies AF-H4L3, AF-H5L2, or control human IgG (4 mg/kg b.w.) were administered twice per week after tumor xenografts were established and palpable. Tumor volumes were then monitored during treatments using caliper measurements every alternate day (N=10 for each group)."}, "[5]": {"tested_on": "LX22 PDX small cell lung cancer cells", "experiment": "ADCC Reporter Bioassay with luciferase Jurkat effector cells", "assay_type": "cell-based, human", "settings": "six hours at 4° C. or 37° C. (FIG. 3)", "method": "The capacity of the humanized KCNK9 AF-H5L2 monoclonal antibody to induce ADCC directed against LX22 PDX small cell lung cancer cells also was evaluated. ADCC assays were performed using the ADCC Reporter Bioassay Complete Kit (Promega #G7015). Human lung CA KCNK9+LX22 cells or CD20+ Raji cells (as positive control) were plated at 50,000 cells per well. On the following day, humanized afucosyl anti-KCNK9 (hu-AF-H5), hu-anti-CD20, or non-immune huIgG1 (as negative control) was added. 30 minutes later, FcγIIIa+ Jurkat effector cells expressing the vNFAT-luciferase ADCC reporter were added (300,000 cells/well). Cell mixtures were incubated for six hours at either 4° C. or 37° C. Cells were collected, solubilized, and luciferase activity was quantified as a biomarker of Jurkat cell activation."}, "[6]": {"tested_on": "KCNK9-expressing BEN lung carcinoma cells", "experiment": "Cell growth and viability assays (cell numbers, MTT, trypan blue exclusion)", "assay_type": "cell-based, human", "settings": "0.4 mg/mL (FIGS. 4A-4C)", "method": "The cytotoxic effect of the AF-H4L3 and AF-H5L2 monoclonal antibodies was tested on KCNK9-expressing BEN lung carcinoma cells. Equal numbers of viable BEN cells were treated with AF-H4L3, AF-H5L2, or human IgG control (0.4 mg/mL). Cells were collected at indicated days after treatment for cell growth and viability assays."}, "[7]": {"tested_on": "KCNK9-negative MDA-MB-231 cells", "experiment": "Cell viability, KCNK9-negative cells", "assay_type": "cell-based, human", "settings": "MDA-MB-231, KCNK9-negative (FIG. 5)"}},
  "data": [
    {"molecule": "H4L3: Humanized KCNK9 IgG1 antibody clone, VH SEQ ID NO: 12 and VL SEQ ID NO: 16 (antibody, V domains shown, human IgG1 constant regions) VH: QVQLVQSGAEVKKPGASVKVSCKASGYSFTGYYMYWVRQAPGQRLEWMGEINPSSGGTTYNQKFKARVTLTVDKSASTAYMELSSLRSEDTAVYYCARSGLRRRFYAMDYWGQGTLVTVSS VL: EIVLTQSPATLSLSPGERATLSCRASESVDSFGTTFMHWYQQKPGQPPRLLIYRASNLESGIPARFSGSGSRTDFTLTISSLEPEDFATYYCQQSNKDPPTFGGGTKVEIK", "values": [
      {"measurement": "Binding affinity to human KCNK9 relative to parental murine monoclonal antibody", "setting": "[1]", "value": "higher affinity than their parental KCNK9 murine monoclonal antibody"}
    ]},
    {"molecule": "AF-H5L2: Afucosyl version of H5L2 antibody generated using fut8−/− CHO cells (antibody, V domains shown) VH: QVQLVQSGAEVKKPGASVKVSCKASGYSFTGYYMYWVRQAPGQRLEWIGEINPSSGGTTYNQKFKARATLTVDKSASTAYMELSSLRSEDTAVYYCARSGLRRRFYAMDYWGQGTLVTVSS VL: EIVLTQSPATLSLSPGERATLSCRASESVDSFGTTFMHWYQQKPGQAPRLLIYRASNLESGIPARFSGSGSRTDFTLTISSLEPEDFAVYYCQQSNKDPPTFGGGTKVEIK", "values": [
      {"measurement": "Effect on cell toxicity induced by PARP inhibition", "setting": "[2]; 400 μg/ml mAb + AZD2461 100 μM, MTT (FIG. 7A)", "value": "substantially augmented"},
      {"measurement": "Effect on cell toxicity induced by CDK4/6 inhibition", "setting": "[2]; 400 μg/ml mAb + palbociclib 0.5 μM, MTT (FIG. 7B)", "value": "substantially augmented"},
      {"measurement": "Effect on cell viability", "setting": "[3]", "value": "inhibited the viability"},
      {"measurement": "Effect on tumor growth (tumor volume)", "setting": "[4]", "value": "significantly attenuated tumor growth"},
      {"measurement": "ADCC induction (luciferase activity of Jurkat effector cells)", "setting": "[5]", "value": "induced ADCC that was temperature dependent"},
      {"measurement": "Activity compared between the two clones, cell growth and viability", "setting": "[6]", "value": "comparatively more active"},
      {"measurement": "Effect on cell growth and viability", "setting": "[6]", "value": "inhibited cell growth and viability"},
      {"measurement": "Effect on cell viability", "setting": "[7]", "value": "without effecting the viability"}
    ]},
    {"molecule": "H5L2: Humanized KCNK9 IgG1 antibody clone, VH SEQ ID NO: 13 and VL SEQ ID NO: 15 (antibody, V domains shown, human IgG1 constant regions) VH: QVQLVQSGAEVKKPGASVKVSCKASGYSFTGYYMYWVRQAPGQRLEWIGEINPSSGGTTYNQKFKARATLTVDKSASTAYMELSSLRSEDTAVYYCARSGLRRRFYAMDYWGQGTLVTVSS VL: EIVLTQSPATLSLSPGERATLSCRASESVDSFGTTFMHWYQQKPGQAPRLLIYRASNLESGIPARFSGSGSRTDFTLTISSLEPEDFAVYYCQQSNKDPPTFGGGTKVEIK", "values": [
      {"measurement": "Binding affinity to human KCNK9 relative to parental murine monoclonal antibody", "setting": "[1]", "value": "higher affinity than their parental KCNK9 murine monoclonal antibody"}
    ]},
    {"molecule": "AF-H4L3: Afucosyl version of H4L3 antibody generated using fut8−/− CHO cells (antibody, V domains shown) VH: QVQLVQSGAEVKKPGASVKVSCKASGYSFTGYYMYWVRQAPGQRLEWMGEINPSSGGTTYNQKFKARVTLTVDKSASTAYMELSSLRSEDTAVYYCARSGLRRRFYAMDYWGQGTLVTVSS VL: EIVLTQSPATLSLSPGERATLSCRASESVDSFGTTFMHWYQQKPGQPPRLLIYRASNLESGIPARFSGSGSRTDFTLTISSLEPEDFATYYCQQSNKDPPTFGGGTKVEIK", "values": [
      {"measurement": "Effect on tumor growth (tumor volume)", "setting": "[4]", "value": "significantly attenuated tumor growth"},
      {"measurement": "Effect on cell growth and viability", "setting": "[6]", "value": "inhibited cell growth and viability"}
    ]},
    {"molecule": "chimeric KCNK9 antibody: Murine anti-KCNK9 variable regions (SEQ ID NO: 1 and 2) fused with human antibody IgG1 constant regions (antibody, V domains shown, human IgG1 constant regions lack entries; Mus) VH: EVQLQQSGPELVKPGASVKTSCKASGYSFTGYYMYWVKQSPEKSLEWIGEINPSSGGTTYNQKFKAKATLTVDKSSSTAYMQLKSLTFEDSAVYYCARSGLRRRFYAMDYWGQGTSVTVSS VL: DIVLTQSPASLAVSLGQRATVSCRASESVDSFGTTFMHWYQQKPGQPPKLLIYRASNLESGIPARFSGSGSRTDFTLTINPVEADDVATYYCQQSNKDPPTFGGGSKLEIK", "values": [
      {"measurement": "EC50 of binding to KCNK9-expressing HEK293 cells", "setting": "[1]; flow cytometry, 30 minutes incubation, anti-human Fc FITC secondary", "value": "about 0.3 μg/mL"}
    ]}
  ]
}
